The values that follow are results of earlier work, collected in patent US9307769B2, “Method for increasing plant yield, and yield improving compositions” (Plant Health Care, Inc., priority 2011, dated 2016).

For one data set the following is noted: HR-eliciting fragments, Table 1.
Turning to “HrpNEa-1: HR-eliciting fragment, E. amylovora, amino acid residues 43-70 (GLGGGNQNDTVNQLAGLLTGMMMMMSMM; UniProt Q01099 43-70, looked up, fragment)”, the pI is 3.09.

On to “HrpNEa-2: HR-eliciting fragment, E. amylovora, amino acid residues 140-176 (QNDDSTSGTDSTSDSSDPMQQLLKMFSEIMQSLFGDG; UniProt Q01099 140-176, looked up, fragment)”, for which the pI was 3.17.

As to “HrpNEch-1: HR-eliciting fragment, E. chrysanthemi, amino acid residues 78-118 (QLGQSFGNGAQGASNLLSVPKSGGDALSKMFDKALDDLLGH; UniProt Q47278 78-118, looked up, fragment)”, the pI is 5.25.

With “HrpNEch-2: HR-eliciting fragment, E. chrysanthemi, amino acid residues 256-295 (DGWSSPKTDDKSWAKALSKPDDDGMTGASMDKFRQAMGMI; UniProt Q47278 256-295, looked up, fragment)”, the pI is given as 4.62.

Regarding “HrpWPss-1: HR-eliciting fragment, P. syringae, amino acid residues 52-96 (LAATMFVMAPVAHDIQQRVHEHPLELSNADKLQSSLKVVIEPLQR; UniProt Q60236 52-96, looked up, fragment)”, the pI is 4.32.

Staying with this data set, now noted: building block domains for fusion proteins, Table 2.
“(NC): building block domain, source HrpNEa140-180 (QNDDSTSGTDSTSDSSDPMQQLLKMFSEIMQSLFGDGQDGT; UniProt Q01099 140-180, looked up, fragment)”: the pI is reported as 5.01.

For “(NN): building block domain, source HrpNEa40-80 (SALGLGGGNQNDTVNQLAGLLTGMMMMMSMMGGGGLMGGGL; UniProt Q01099 40-80, looked up, fragment)”, the pI is 6.78.
